B1: CXCL16 (protein, UniProt Q9H2A7 30-254, looked up)
C-X-C motif chemokine 16: NEGSVTGSCYCGKRISSDSPPSVQFMNRLRKHLRAYHRCLYYTRFQLLSWSVCGGNKDPWVQELMSCLDLKECGHAYSGIVAHQKHLLPTSPPISQASEGASSDIHTPAQMLLSTLQSTQRPTLPVGSLSSDKELTRPNETTIHTAGHSLAAGPEAGENQKQPEKNAGPTARTSATVPVLCLLAIIFILTAALSYVLCKRRRGQSPQSSPDLPVHYIPVAPDSNT
B2: TMPRSS5 (protein, UniProt Q9H3S3 1-457, looked up)
Transmembrane protease serine …: MSLMLDDQPPMEAQYAEEGPGPGIFRAEPGDQQHPISQAVCWRSMRRGCAVLGALGLLAGAGVGSWLLVLYLCPAASQPISGTLQDEEITLSCSEASAEEALLPALPKTVSFRINSEDFLLEAQVRDQPRWLLVCHEGWSPALGLQICWSLGHLRLTHHKGVNLTDIKLNSSQEFAQLSPRLGGFLEEAWQPRNNCTSGQVVSLRCSECGARPLASRIVGGQSVAPGRWPWQASVALGFRHTCGGSVLAPRWVVTAAHCMHSFRLARLSSWRVHAGLVSHSAVRPHQGALVERIIPHPLYSAQNHDYDVALLRLQTALNFSDTVGAVCLPAKEQHFPKGSRCWVSGWGHTHPSHTYSSDMLQDTVVPLFSTQLCNSSCVYSGALTPRMLCAGYLDGRADACQGDSGGPLVCPDGDTWRLVGVVSWGRGCAEPNHPGVYAKVAEFLDWIHDTAQDSLL
B3: CLUL1 (protein, UniProt Q15846 21-466, looked up)
Clusterin-like protein 1: APTWKDKTAISENLKSFSEVGEIDADEEVKKALTGIKQMKIMMERKEKEHTNLMSTLKKCREEKQEALKLLNEVQEHLEEEERLCRESLADSWGECRSCLENNCMRIYTTCQPSWSSVKNKIERFFRKIYQFLFPFHEDNEKDLPISEKLIEEDAQLTQMEDVFSQLTVDVNSLFNRSFNVFRQMQQEFDQTFQSHFISDTDLTEPYFFPAFSKEPMTKADLEQCWDIPNFFQLFCNFSVSIYESVSETITKMLKAIEDLPKQDKAPDHGGLISKMLPGQDRGLCGELDQNLSRCFKFHEKCQKCQAHLSEDCPDVPALHTELDEAIRLVNVSNQQYGQILQMTRKHLEDTAYLVEKMRGQFGWVSELANQAPETEIIFNSIQVVPRIHEGNISKQDETMMTDLSILPSSNFTLKIPLEESAESSNFIGYVVAKALQHFKEHFKTW
B4: hK11 (protein, UniProt Q9UBX7 54-282, looked up)
Kallikrein-11: IIKGFECKPHSQPWQAALFEKTRLLCGATLIAPRWLLTAAHCLKPRYIVHLGQHNLQKEEGCEQTRTATESFPHPGFNNSLPNKDHRNDIMLVKMASPVSITWAVRPLTLSSRCVTAGTSCLISGWGSTSSPQLRLPHTLRCANITIIEHQKCENAYPGNITDTMVCASVQEGGKDSCQGDSGGPLVCNQSLQGIISWGQDPCAITRKPGVYTKVCKYVDWIQETMKNN
B5: TLT-2 (protein, UniProt Q5T2D2 19-321, looked up)
Trem-like transcript 2 protein: GPSADSVYTKVRLLEGETLSVQCSYKGYKNRVEGKVWCKIRKKKCEPGFARVWVKGPRYLLQDDAQAKVVNITMVALKLQDSGRYWCMRNTSGILYPLMGFQLDVSPAPQTERNIPFTHLDNILKSGTVTTGQAPTSGPDAPFTTGVMVFTPGLITLPRLLASTRPASKTGYSFTATSTTSQGPRRTMGSQTVTASPSNARDSSAGPESISTKSGDLSTRSPTTGLCLTSRSLLNRLPSMPSIRHQDVYSTVLGVVLTLLVLMLIMVYGFWKKRHMASYSMCSDPSTRDPPGRPEPYVEVYLI
B6: SCGB3A1 (protein, UniProt Q96QR1 21-104, looked up)
Secretoglobin family 3A …: FLVGSAKPVAQPVAALESAAEAGAGTLANPLGTLNPLKLLLSSLGIPVNHLIEGSQKCVAELGPQAVGAVKALKALLGALTVFG
B7: SELP (protein, UniProt P16109 42-830, looked up)
P-selectin: WTYHYSTKAYSWNISRKYCQNRYTDLVAIQNKNEIDYLNKVLPYYSSYYWIGIRKNNKTWTWVGTKKALTNEAENWADNEPNNKRNNEDCVEIYIKSPSAPGKWNDEHCLKKKHALCYTASCQDMSCSKQGECLETIGNYTCSCYPGFYGPECEYVRECGELELPQHVLMNCSHPLGNFSFNSQCSFHCTDGYQVNGPSKLECLASGIWTNKPPQCLAAQCPPLKIPERGNMTCLHSAKAFQHQSSCSFSCEEGFALVGPEVVQCTASGVWTAPAPVCKAVQCQHLEAPSEGTMDCVHPLTAFAYGSSCKFECQPGYRVRGLDMLRCIDSGHWSAPLPTCEAISCEPLESPVHGSMDCSPSLRAFQYDTNCSFRCAEGFMLRGADIVRCDNLGQWTAPAPVCQALQCQDLPVPNEARVNCSHPFGAFRYQSVCSFTCNEGLLLVGASVLQCLATGNWNSVPPECQAIPCTPLLSPQNGTMTCVQPLGSSSYKSTCQFICDEGYSLSGPERLDCTRSGRWTDSPPMCEAIKCPELFAPEQGSLDCSDTRGEFNVGSTCHFSCDNGFKLEGPNNVECTTSGRWSATPPTCKGIASLPTPGVQCPALTTPGQGTMYCRHHPGTFGFNTTCYFGCNAGFTLIGDSTLSCRPSGQWTAVTPACRAVKCSELHVNKPIAMNCSNLWGNFSYGSICSFHCLEGQLLNGSAQTACQENGHWSTTVPTCQAGPLTIQEALTYFGGAVASTIGLIMGGTLLALLRKRFRQKDDGKCPLNPHSHLGTYGVFTNAAFDPSP
B8: DAPP1 (protein, UniProt Q9UN19 1-280, looked up)
Dual adapter for …: MGRAELLEGKMSTQDPSDLWSRSDGEAELLQDLGWYHGNLTRHAAEALLLSNGCDGSYLLRDSNETTGLYSLSVRAKDSVKHFHVEYTGYSFKFGFNEFSSLKDFVKHFANQPLIGSETGTLMVLKHPYPRKVEEPSIYESVRVHTAMQTGRTEDDLVPTAPSLGTKEGYLTKQGGLVKTWKTRWFTLHRNELKYFKDQMSPEPIRILDLTECSAVQFDYSQERVNCFCLVFPFRTFYLCAKTGVEADEWIKILRWKLSQIRKQLNQGEGTIRSRSFIFK
B9: PRDX5 (protein, UniProt P30044 53-214, looked up)
Peroxiredoxin-5, mitochondrial: MAPIKVGDAIPAVEVFEGEPGNKVNLAELFKGKKGVLFGVPGAFTPGCSKTHLPGFVEQAEALKAKGVQVVACLSVNDAFVTGEWGRAHKAEGKVRLLADPTGAFGKETDLLLDDSLVSIFGNRRLKRFSMVVQDGIVKALNVEPDGTGLTCSLAPNIISQL
B10: IL2-RA (protein, UniProt P01589 22-272, looked up)
Interleukin-2 receptor …: ELCDDDPPEIPHATFKAMAYKEGTMLNCECKRGFRRIKSGSLYMLCTGNSSHSSWDNQCQCTSSATRNTTKQVTPQPEEQKERKTTEMQSPMQPVDQASLPGHCREPPPWENEATERIYHFVVGQMVYYQCVQGYRALHRGPAESVCKMTHGKTRWTQPQLICTGEMETSQFPGEEKPQASPEGRPESETSCLVTTTDFQIQTEMAATMETSIFTTEYQVAVAGCVFLLISVLLLSGLTWQRRQRKSRRTI

This assay has as its system plasma proteins. As to the kind of experiment: Plasma proteins modulated between baseline and day 28 in responders (CR, VGPR, PR; n = 19), Example 6 (Table 13). The format is in vivo, human. To be noted: plasma protein (OLINK NPX); responders (CR, VGPR, PR; n = 19); itacitinib 200 mg or 300 mg QD with corticosteroids; day 28 vs baseline. In outline: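 Longitudinal comparison, day 28 versus baseline, with steroid-naive (N=10) and steroid-refractory (N=18) patients combined. Proteins measured by OLINK proximity extension, log2 normalized protein expression. Differences tested by t tests, ANOVA, Pearson correlation, P<0.05 significant.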
Turning to B1, the “Fold Change, Increased Expression from Baseline to Day 28” value (shortened to “Fold Change, Increased Expression”) stood at 1.2028.
On the same count and under the same terms, as for B2, the figure is 1.3307.
Same read-out and setting: in the case of B3 it was 1.3108.
For the molecule B4, the “Fold Change, Increased Expression” value is given as 1.2975.
Take B5: the “Fold Change, Decreased Expression from Baseline to Day 28” value is reported as −1.8372.
For B6, the “Fold Change, Increased Expression” value came to 1.5691.
For the molecule B7, the “Fold Change, Decreased Expression from Baseline to Day 28” value is listed as −1.9244.
Same read-out and setting: in the case of B8 it was −1.3805; in that of B9, −2.0131; in that of B10, −2.2452.

The record behind these values is patent publication US12099068B2, “Biomarkers for graft-versus-host disease” (Incyte Corporation, priority 2018, dated 2024).
